Test results reported in patent US10400022B2, “Neuropilin-1 specific binding peptide, fusion protein fused with same, and use thereof” (AJOU UNIVERSITY INDUSTRY-ACADEMIC COOPERATION FOUNDATION, priority 2015, dated 2019).
Where no end group is shown, it is not given here.

Tests used:
[1] = molecular target: T1, biotinylated NRP1-b1b2 (Homo sapiens, UniProt O14786); assay: FACS of yeast surface-displayed clones binding biotinylated NRP1-b1b2; details: yeast surface display, compared with A22p
T1 construct: biotin (chemical label on amines, Sulfo-NHS-LC-biotin); made in house
Text: […] In addition, in the MACS and FACS processes, non-biotinylated NRP2-b1b2 was used as a competitive protein for biotinylated NRP1-b1b2 at a 10-fold higher concentration, and individual clones that bind to NRP1-b1b2 were selected.

[2] = system: VEGF165A-induced angiogenesis; assay: In vivo matrigel plug assay; set-up: species or system Balb/c nude mice; details: 200 μg in matrigel plug with A431 cells, 8 days
Description: Additionally, in order to examine anti-angiogenesis activity in vivo, a matrigel plug assay was performed. […] After 8 days, the matrigel plug was extracted, imaged (FIG. 15(B)), and then sectioned to a thickness of 20 μm by a frozen-section method, and subjected to immunohistochemistry. The blood vessels were stained with the primary antibody CD31 and a TRITC (red fluorescence)-labeled secondary antibody recognizing the same, and the density of the blood vessels was measured.

[3] = system: A431 cells expressing neuropilin-1; assay: Immunohistochemistry of tumor tissue penetration in A431 xenograft; type: in vivo, Balb/c nude mice; details: 10 mg/kg intravenously, 15 hours after injection
Description: At 15 hours after injection, the tumor was extracted from the mice and subjected to immunohistochemistry. The extracted tumor tissue was sectioned to a thickness of 20 μm by a frozen-section method, and the blood vessels were stained with the primary antibody CD31 antibody (BD Pharmingen) and TRITC (red fluorescence)-labeled secondary antibody that recognizes the same. In addition, to observe the distribution of the Fc-TPP1, Fc-TPP8 and Fc-TPP11 fusion proteins in the tissue, an FITC (green fluorescence)-labeled antibody that recognizes Fc was used.

[4] = system: human umbilical vein endothelial cells (HUVECs); assay: Transwell assay of penetration of vascular endothelial cells (dextran-FITC); type: cell-based; details: 1 μM for 30 minutes (VEGF165A about 1.3 nM); dextran-FITC fluorescence in lower chamber
Description: Specifically, 5×10^4 human umbilical vein endothelial cells (HUVECs) were seeded into the upper chamber of a transwell plate (Corning) and incubated in EGM2 for 3 days under the conditions of 37° C. and 5% CO2. […] Then, 50 μl of dextran-FITC (Sigma) was added to the upper chamber. After 30 minutes, based on the principle according to which the fluorescent substance would be observed when penetration into the vascular endothelial cells was increased, the medium was sampled from the lower chamber and the fluorescence thereof was measured.

[5] = molecular target: T2, NRP1 displayed on the human umbilical vein endothelial cell (HUVEC) surface (Homo sapiens, UniProt O14786); assay: Confocal co-localization with NRP1 on HUVEC surface; type: cell-based; details: 1 μM, 30 minutes, 4° C., confocal microscopy
T2 construct: endogenous in cells; host or cells: HUVEC
Description: In an experiment for biological identification of the peptides that binds specifically to NRP1, human umbilical vein endothelial cells (HUVECs) overexpressing NRP1 were used.
Specifically, 5×10^4 HUVEC cells were added to each well of a 24-well plate and incubated in 0.5 ml of EGM2 (Endothelial growth medium, Promocell) medium for 24 hours under the conditions of 5% CO2 and 37° C. […] Next, the medium was removed, and each well was washed with cold PBS. Then, the fusion protein wherein the selected peptide that binds specifically to NRP1 is fused to the antibody heavy-chain constant region was stained with FITC (green fluorescence)-labeled antibody (Sigma) that specifically recognizes Fc, and NRP1 was stained with primary antibody (Abcam) that recognizes NRP1 and with TRITC (red fluorescence)-labeled secondary antibody. The nucleus was stained (blue fluorescence) with DAPI and analyzed by confocal microscopy.

[6] = system: VE-cadherin; assay: Western blot of VE-cadherin in HUVEC; type: cell-based, human
Description: Specifically, 5×10^5 HUVEC cells were seeded into each well of a 6-well plate and incubated for 24 hours, […] constant Fc region and the selected peptide that binds specifically to NRP1, for 10 minutes, followed by Western blot analysis. After SDS-PAGE, the gel was transferred to a PVDF membrane, and detection was performed using primary antibodies (SantaCruz) that recognize VE-cadherin and β-actin and using HRP-conjugated secondary antibody (SantaCruz), and analysis was performed using ImageQuant LAS4000 mini (GE Healthcare).

[7] = molecular target: T3, NRP1-b1b2 (273-586) protein (Homo sapiens, UniProt O14786); assay: Competitive ELISA with VEGF165A / RPARPAR on NRP1-b1b2; type: binding
T3 construct: made in house
Description: In order to evaluate competitive binding of the TPP11 peptide, which binds specifically to NRP1 without binding to NRP2, and VEGF165A and a RPARPAR peptide, known to bind to the arginine-binding pocket of the NRP1-b1 domain, competitive ELISA was performed.
Specifically, binding NRP1-b1b2 (273-586) protein to each well of a 96-well EIA/RIA plate or a 96-well EIA/RIA black plate (COSTAR Corning In., USA) at room temperature for […], is followed by washing three times with 0.1% PBST (0.1% Tween20, pH 7.4, 137 mM NaCl, 10 mM Phosphate, 2.7 mM KCl, SIGMA-ALDRICH co., USA) for 10 minutes. After binding with 5% skim milk (5% Skim milk, pH 7.4, 137 mM NaCl, 10 mM Phosphate, 2.7 mM KCl, SIGMA-ALDRICH co., USA) for 1 hour, each well was washed three times with 0.1% PBST (0.1% Tween20, pH 7.4, 137 mM NaCl, 10 mM Phosphate, 2.7 mM KCl, SIGMA-ALDRICH co., USA) for 10 minutes. […] Then, each mixture was incubated with AP-conjugated anti-human antibody (alkaline phosphatase-conjugated anti-human mAb, Sigma, USA), and then reacted with pNPP ([…], SIGMA-ALDRICH co., USA), and the absorbance at 405 nm was measured.

[8] = system: E-cadherin; assay: Western blot of E-cadherin in FaDu cells; type: cell-based; details: human head and neck cancer FaDu cells
Description: Specifically, 5×10^5 HUVEC cells were seeded into each well of a 6-well plate and incubated for 24 hours, and then treated with 0.1 μM of the fusion protein of the antibody heavy-chain constant Fc region and the selected peptide that binds specifically to NRP1, for 10 minutes, followed by Western blot analysis. After SDS-PAGE, the gel was transferred to a PVDF membrane, and detection was performed using primary antibodies (SantaCruz) that recognize VE-cadherin and β-actin and using HRP-conjugated secondary antibody (SantaCruz), and analysis was performed using ImageQuant LAS4000 mini (GE Healthcare).
In order to examine whether the Fc-TPP1, Fc-TPP8 and Fc-TPP11 fusion proteins also have an enhanced ability to penetrate cancer cells, a change in E-cadherin in human head and neck cancer FaDu cells expressing NRP1 was analyzed by Western blot analysis under the same conditions as described above.

[9] = molecular target: T3, NRP1-b1b2 (273-586) protein; assay: ELISA binding to NRP1-b1b2; details: synthetic peptide not fused to Fc, 100 nM
Description: The binding affinities of purified Fc-TPP1, Fc-TPP8 and Fc-TPP11 fusion proteins for the b1b2 domains of NRP1 and NRP2 were analyzed by ELISA (Enzyme Linked Immunosorbent Assay).
To examine specificity for NRP1, the control VEGF165A and Fc, A22p, and each of the fusion proteins wherein the selected peptide that binds specifically to NRP1 is fused to the antibody heavy-chain constant Fc region, was biotinylated using a NHS-biotin kit (SIGMA-ALDRICH co., USA).
1 μg of each of NRP1-b1b2 (273-586) protein, NRP2-b1b2 (275-595) protein and the control group VEGFR2 (46-753) was immobilized in each well of a 96-well EIA/RIA plate (COSTAR Corning In., USA) at room temperature for 1 hour, and then washed three times with 0.1% PBST (0.1% Tween20, pH 7.4, 137 mM NaCl, 10 mM Phosphate, 2.7 mM KCl, SIGMA-ALDRICH co., USA) for 10 minutes. After binding with 5% skim milk (5% Skim milk, pH 7.4, 137 mM NaCl, 10 mM Phosphate, 2.7 mM KCl, SIGMA-ALDRICH co., USA) for 1 hour, each well was washed three times with 0.1% PBST (0.1% Tween20, pH 7.4, 137 mM NaCl, 10 mM Phosphate, 2.7 mM KCl, SIGMA-ALDRICH co., USA) for 10 minutes. […] Each well was bound with AP-conjugated anti-biotin antibody (alkaline phosphatase-conjugated anti-biotin mAb, Sigma, USA), and then reacted with pNPP ([…], SIGMA-ALDRICH co., USA), and the absorbance at 405 nm was measured.

Substance: TPP1: NRP1-targeting peptide HTPGNSNQFVLTSTRPPR, SEQ ID NO: 1 (Synthetic construct (TPP1))
- binding to 100 nM biotinylated NRP1-b1b2 (mean fluorescence intensity) [1]: showed higher mean fluorescence intensities

Substance: Fc-A22p: control Fc fusion of A22p peptide (HTPGNSNKWKHLQENKKGRPRR) that binds to both NRP1 and NRP2 (also: fused to Fc, not in chain)
- VEGF165A-induced angiogenesis (density of blood vessels, CD31) [2]: inhibited VEGF165A-induced angiogenesis in living mice
- tumor tissue accumulation and penetration [3]: selectively reached tumor tissue
- ability to penetrate vascular endothelial cells [4]: had an increased ability to penetrate vascular endothelial cells
- binding to NRP1 on the HUVEC cell surface [5]: did bind to NRP1 on the HUVEC cell surface
- change in VE-cadherin at 1 μM ([6]; 1 μM): VE-cadherin significantly decreased
- change in VE-cadherin ([6]; 10 minutes): a decrease in VE-cadherin was observed
- binding to NRP1-b1b2 competitively with VEGF165A ([7]; VEGF165A 25 nM to 0.02 nM): overlapped a portion of NRP1 to which VEGF165A did bind
- change in E-cadherin [8]: induced a decrease in E-cadherin

Substance: TPP11: NRP1-targeting peptide HTPGNSKPTRTPRR, SEQ ID NO: 3 (Synthetic construct (TPP11))
- lower affinity than Fc-TPP11 for NRP1-b1b2 protein [9]: at least 100 fold
- binding to 100 nM biotinylated NRP1-b1b2 (mean fluorescence intensity) [1]: showed higher mean fluorescence intensities
- competitive binding of synthesized peptide with RPARPAR peptide and VEGF165A [7]: inhibited the binding of the RPARPAR peptide and VEGF165 to NRP1

Substance: TPP8: NRP1-targeting peptide HTPGIATRTPR, SEQ ID NO: 2 (Synthetic construct (TPP8))
- binding to 100 nM biotinylated NRP1-b1b2 (mean fluorescence intensity) [1]: showed higher mean fluorescence intensities
